Consider 4 molecules from paper PMC3188359 (Biochemistry, 2000).

Where two headings read alike, the source gives them in different places.

Data set [1] has as its target Bacillus stearothermophilus DnaB (replicative helicase) (Bacillus stearothermophilus NCA 1503) (UniProt Q9X4C9). The data set is described as follows: SEC. For orientation: In gel filtration, larger molecules generally elute earlier.
Data set [2] has as its target T1, Bacillus stearothermophilus DnaB (replicative helicase) (Bacillus stearothermophilus NCA 1503, UniProt Q9X4C9 1-454).
T1 sequence (looked up): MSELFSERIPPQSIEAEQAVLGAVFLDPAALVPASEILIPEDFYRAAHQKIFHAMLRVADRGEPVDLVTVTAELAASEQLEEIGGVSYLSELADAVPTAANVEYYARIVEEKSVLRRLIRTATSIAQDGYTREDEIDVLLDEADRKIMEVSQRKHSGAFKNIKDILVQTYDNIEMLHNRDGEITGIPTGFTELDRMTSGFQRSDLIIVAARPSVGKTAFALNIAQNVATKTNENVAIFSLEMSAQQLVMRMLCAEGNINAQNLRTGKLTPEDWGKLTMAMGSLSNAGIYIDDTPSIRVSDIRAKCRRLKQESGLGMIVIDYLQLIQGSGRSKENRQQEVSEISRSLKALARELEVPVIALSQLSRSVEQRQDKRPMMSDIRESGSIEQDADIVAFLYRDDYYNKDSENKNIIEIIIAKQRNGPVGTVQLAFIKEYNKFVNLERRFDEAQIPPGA
As to the kind of experiment: SEC + AUC.

Data set [3] deals with the molecule itself. As to the kind of experiment: SEC.
Data set [4] deals with the molecule itself. The data set is described as follows: SEC. This is another data set of the same source.
Data set [5] concerns the molecule itself. As to the kind of experiment: SEC. This is another data set of the same source.

Consider “P16, C-terminal 16 kDa fragment of B. stearothermophilus DnaG (from UniProt Q9X4D0 451-597) (domain or fragment)”, for which the stoichiometry N (P16 molecules per DnaB hexamer) in data set [1] is 3.

B1: Bacillus stearothermophilus DnaG (primase) (enzyme, Bacillus stearothermophilus NCA 1503, UniProt Q9X4D0 1-597, looked up)
chain: MGHRIPEETIEAIRRGVDIVDVIGEYVQLKRQGRNYFGLCPFHGEKTPSFSVSPEKQIFHCFGCGAGGNAFTFLMDIEGIPFVEAAKRLAAKAGVDLSVYELDVRGRDDGQTDEAKAMTEAHALLKRFYHHLLVHTKEGQAALDYLQARGWTKETIDRFEIGYAPDAPDAAAKLLESHSFSLPVMEKAGLLTKKEDGRYVGRFRNRIMFPIHDHRGETVGFSGRLLGEGHPKYVNSPETPVFRKGAILYHFHAARVPIRKRQEALLVEGFADVISAAQAGIDYAIATMGTSLTEEQARILRPCDTITICYDGDRAGIEAAWAAAEQLSALGCRVKVASLPNGLDPDEYIRVYGGERFAGEAGCRRPLVAFKMAYLRRGKNLQHEGERLRYIDEALREIGKLSSPVEQDYYLRQLAEEFSLSLSALHEQLSRSQRERTKPREAPDGETARPMLAKKLLPAFQNAERLLLAHMMRSRDVALVVQERIGGRFNIEEHRALAAYIYAFYEEGHEADPGALISRIPGELQPLASDVSLLLIADDVSEQELEDYIRHVLNRPKWLMLKVKEQEKTEAERRKDFLTAARIAKEMIEMKKMLSSS
B1: the “stoichiometry N” value in data set [2] is 3 DnaG molecules per DnaB hexamer.

B2: P33, C-terminal 33 kDa fragment of B. stearothermophilus DnaB (domain or fragment, Bacillus stearothermophilus NCA 1503, UniProt Q9X4C9 155-454, looked up)
chain: HSGAFKNIKDILVQTYDNIEMLHNRDGEITGIPTGFTELDRMTSGFQRSDLIIVAARPSVGKTAFALNIAQNVATKTNENVAIFSLEMSAQQLVMRMLCAEGNINAQNLRTGKLTPEDWGKLTMAMGSLSNAGIYIDDTPSIRVSDIRAKCRRLKQESGLGMIVIDYLQLIQGSGRSKENRQQEVSEISRSLKALARELEVPVIALSQLSRSVEQRQDKRPMMSDIRESGSIEQDADIVAFLYRDDYYNKDSENKNIIEIIIAKQRNGPVGTVQLAFIKEYNKFVNLERRFDEAQIPPGA
Take B2: the “stoichiometry N” value in data set [3] came to 6; in data set [4] it was 2.

B3: P17, N-terminal 17 kDa fragment of B. stearothermophilus DnaB (domain or fragment, Bacillus stearothermophilus NCA 1503, UniProt Q9X4C9 1-154, looked up)
chain: MSELFSERIPPQSIEAEQAVLGAVFLDPAALVPASEILIPEDFYRAAHQKIFHAMLRVADRGEPVDLVTVTAELAASEQLEEIGGVSYLSELADAVPTAANVEYYARIVEEKSVLRRLIRTATSIAQDGYTREDEIDVLLDEADRKIMEVSQRK
For B3, the “stoichiometry N” value in data set [5] came to 2.

The term stoichiometry N denotes a count of units in the complex or per binding partner.
